Molecular target: 145-Tailless nucleosome (145 bp Widom 601 DNA with tailless histone mutants H4-del 1-20, H3-del 1-37, H2A-del 1-15 and H2B-del 1-31), P06897
Assay: native gel or EMSA; FAM-labelled nucleosome (0.8 pmol; oligonucleosomes 0.1 pmol) mixed with different amounts of cGAS in 20 mM Tris-HCl pH 7.6, 60 mM NaCl, 5 mM MgCl2, total volume 10 ul; on ice 30 min; 1.5% agarose gel, 0.2x TBE; Kd from percent bound nucleosome against cGAS concentration
Settings: remark: other sources report otherwise

B1: human cGAS (cGMP-AMP synthase), Q8N884 1-522 (enzyme)
chain: MQPWHGKAMQRASEAGATAPKASARNARGAPMDPTESPAAPEAALPKAGKFGPARKSGSRQKKSAPDTQERPPVRATGARAKKAPQRAQDTQPSDATSAPGAEGLEPPAAREPALSRAGSCRQRGARCSTKPRPPPGPWDVPSPGLPVSAPILVRRDAAPGASKLRAVLEKLKLSRDDISTAAGMVKGVVDHLLLRLKCDSAFRGVGLLNTGSYYEHVKISAPNEFDVMFKLEVPRIQLEEYSNTRAYYFVKFKRNPKENPLSQFLEGEILSASKMLSKFRKIIKEEINDIKDTDVIMKRKRGGSPAVTLLISEKISVDITLALESKSSWPASTQEGLRIQNWLSAKVRKQLRLKPFYLVPKHAKEGNGFQEETWRLSFSHIEKEILNNHGKSKTCCENKEEKCCRKDCLKLMKYLLEQLKERFKDKKHLDKFSSYHVKTAFFHVCTQNPQDSQWDRKDLGLCFDNCVTYFLQCLRTEKLENYFIPEFNLFSSNLIDKRSKEFLTKQIEYERNNEFPVFDEF
  Kd: 79 nM

— paper PMC7505961
